Here are results for 1 molecule from publication PMC3958346, “Clearance Kinetics and Matrix Binding Partners of the Receptor for Advanced Glycation End Products” (PLoS ONE, 2014).

Where “and” joins values, the source holds several entries; their conditions need not be identical. Equal values may be shown once.

Among the targets are Collagen I (Sigma product, species and catalogue number not printed (could be rat or bovine). Natural alpha1(I)2 alpha2(I) heterotrimer taken by convention, propeptides removed; hydroxyproline, hydroxylysine, gly); Collagen IV (Sigma product, species and catalogue number not printed (human placenta or mouse EHS are both likely). Common alpha1(IV)2 alpha2(IV) heterotrimer taken by convention, 7S domain kept; hydroxyproline, h); Laminin.

Test in all cases: BLI; ForteBIO Octet; purified mouse sRAGE conjugated to amine-reactive sensor tips, matrix protein in solution in varying concentrations; 1800 s association, dissociation in PBS; fit to the 1:1 Langmuir model; constants printed for each analyte concentration
Conditions in all cases: both partners purified
(In general: BLI is a label-free optical method that tracks binding on a fibre tip over time.)

B1: Mouse soluble RAGE (soluble receptor for advanced glycation end products) (natural protein, UniProt Q62151-1 22-330, looked up)
chain: GGQNITARIGEPLVLSCKGAPKKPPQQLEWKLNTGRTEAWKVLSPQGGPWDSVARILPNGSLLLPATGIVDEGTFRCRATNRRGKEVKSNYRVRVYQIPGKPEIVDPASELTASVPNKVGTCVSEGSYPAGTLSWHLDGKLLIPDGKETLVKEETRRHPETGLFTLRSELTVIPTQGGTHPTFSCSFSLGLPRRRPLNTAPIQLRVREPGPPEGIQLLVEPEGGIVAPGGTVTLTCAISAQPPPQVHWIKDGAPLPLAPSPVLLLPEVGHEDEGTYSCVATHPSHGPQESPPVSIRVTETGDEGPAEGS
notes: Mouse soluble RAGE, residues 22-330, signal peptide cleaved off; mass 35742.30 Da; mouse membrane RAGE has a published length of 402 (NP_031451.2); Native protein from tissue; Coupled to amine-reactive sensor tips in one orientation, in solution in the other; also called sRAGE; mouse sRAGE; source: endotoxin removed with Detoxi-Gel polymyxin B resin
Regarding B1, the Kd (in general, the equilibrium constant for the complex coming apart) with Collagen I was 3.51 nM and 1.62 nM and 1.84 nM. In the assay with Collagen IV, the Kd is 2.57 nM and 3.59 nM and 4.81 nM; the koff (commonly the rate constant with which the complex falls apart) is 6.26e-05 s⁻¹ and 7.72e-05 s⁻¹ and 8.1e-05 s⁻¹; the kon (as a rule, the second-order rate constant of association) is 24400 M⁻¹ s⁻¹ and 21500 M⁻¹ s⁻¹ and 16700 M⁻¹ s⁻¹. Moreover, in the assay with Laminin, the koff is 0.000191 s⁻¹ and 0.000102 s⁻¹ and 8.02e-05 s⁻¹ and 0.000108 s⁻¹; the kon was 75400 M⁻¹ s⁻¹ and 106000 M⁻¹ s⁻¹ and 136000 M⁻¹ s⁻¹ and 171000 M⁻¹ s⁻¹.
